According to publication PMC10154539 (Cell Reports, 2023):
Positions count from the first letter of the chain named.

B1: XG005a (antibody, V domains shown)
VH: QITLKESGPTLVKPTQTLTLTCTFSGFSLSTSGVGVGWIRQPPGKALEWLALIYWDNDKRYSPSLKSRLTITMDTSKNQVVLTMTNMDPVDTATYYCARLPSTDTIFDYWGQGALVTVSS
VL: QSALTQPASVSGSPGQSITVSCTGTSSDVGDYNYVSWYQQHPGKAPKLMIYDVSKRPSGVSNRFSGSKSGKTASLTISGLQAEDEADYYCSSYTSTSVVFGGGTKLTVL
B2: XG005c (antibody, V domains shown)
VH: B1 VH with N57D, M73K, L82V, S102A, Y109S, A114T
VL: B1 VL with V20I, D31A, K71Y, A82P, Y89F, S95T
B3: XG005 (antibody, V domains shown)
VH: QVTLRESGPTLVKPKQTLTLTCTFSGFSLSTPGGGVGWIRQPPGKALEWLALIYWDDDKRYSPSLKSSLTITKDTSKNQVVLTMTNMDPVDTATYYCARLTAADTIFDCWGQGTLVTVSS
VL: B1 VL with Q16L, V20I, G24A, D31A, K44Q, G70A, K71N, S95T

What was measured:
[1] = molecular target: T1, S-ECD protein of SARS-CoV-2 Omicron (B.1.1.529) (SARS-CoV-2 B.1.1.529 (Omicron), strain); assay: cell-based or functional assay
[2] = molecular target: T1, S-ECD protein of SARS-CoV-2 Omicron …; assay: ELISA
[3] = molecular target: SARS-CoV-2 Spike protein (ECD, His & FLAG tag), Wuhan-Hu-1 (wild-type) (SARS-CoV-2 Wuhan-Hu-1, UniProt P0DTC2); assay: ELISA

Binder | IC50 of neutralization of Omicron pseudovirus, Huh-7 cells, luciferase [1] [µg/mL] | ELISA AUC [2] | binding result [3]
B1 | > 10 | ~26 | –
B2 | 2 | ~30 | –
B3 | – | ~30 | binds
